Results as given in patent US20060257407A1 (Janssen / Centocor, published 2006).
Positions count from the first letter of the chain named. Like-named read-outs stand apart in the source and are kept apart here. Values belong to the binder of their own block, whether it stands above or below them.

Tests used:
[1] = biological target: recombinant human IL-6 (human) (UniProt P05231); assay: calculated from KD = koff/kon, KinExA 3000
[2] = biological target: recombinant human IL-6 (human) (UniProt P05231); assay: cell-based or functional assay
[3] = biological target: recombinant human IL-6 (human) (UniProt P05231); assay: cell-based or functional assay; remark: listed apart in the source
[4] = biological target: recombinant human IL-6 (human) (UniProt P05231); assay: KinExA 3000, equilibrium in solution, IgG at 5 pM with serially diluted human IL-6, 20 C
[5] = biological target: recombinant human IL-6 (human) (UniProt P05231); assay: KinExA 3000
[6] = biological target: recombinant human IL-6 (human) (UniProt P05231); assay: calculated, KinExA 3000
[7] = biological target: recombinant human IL-6 (human) (UniProt P05231); assay: ELISA: IgG dilutions captured on goat anti-human kappa, biotinylated IL-6 at 200 ng/ml, NeutrAvidin-alkaline phosphatase, O.D. 560 after 15 min
[8] = biological target: recombinant human IL-6 (human) (UniProt P05231); assay: KinExA 3000, IgG at 200 pM mixed with 100-200 pM human IL-6, free IgG over time
[9] = biological target: IL-6/sIL-6R complex (human) (UniProt P08887); assay: ELISA: sIL-6R coated at 10 µg/ml, human IL-6 added at 200 ng/ml, antibody dilutions, detection with HRP-anti-human IgG, OD490
Sequence of IL-6/sIL-6R complex (human) (chain, as listed by the source limits assumed, chain 1 of 2): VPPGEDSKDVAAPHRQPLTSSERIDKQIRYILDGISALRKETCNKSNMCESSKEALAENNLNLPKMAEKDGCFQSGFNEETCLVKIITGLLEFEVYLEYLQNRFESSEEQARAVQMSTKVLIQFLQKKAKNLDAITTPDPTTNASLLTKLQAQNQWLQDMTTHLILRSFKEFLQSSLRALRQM
Sequence of IL-6/sIL-6R complex (human) (P08887 20-358 limits assumed, chain 2 of 2): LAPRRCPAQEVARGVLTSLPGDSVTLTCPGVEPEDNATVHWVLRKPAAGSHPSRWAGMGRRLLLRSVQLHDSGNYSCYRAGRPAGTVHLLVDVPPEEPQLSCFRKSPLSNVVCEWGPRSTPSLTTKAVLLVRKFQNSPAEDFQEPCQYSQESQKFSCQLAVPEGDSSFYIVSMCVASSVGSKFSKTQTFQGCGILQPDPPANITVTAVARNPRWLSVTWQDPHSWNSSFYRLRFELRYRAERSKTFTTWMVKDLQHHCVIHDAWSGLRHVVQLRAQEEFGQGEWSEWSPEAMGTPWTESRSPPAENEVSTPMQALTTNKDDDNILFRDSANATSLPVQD

recombinant human IL-6 [10] = biological target: T1, recombinant human IL-6 (human, UniProt P05231 30-212); assay: KinExA 3000, equilibrium in solution, IgG at 1 pM with serially diluted human IL-6, 20 C
T1 construct: Bought from R&D Systems (206-IL-010); Biotinylated or coupled to beads in some assays; also called hIL-6; rhIL-6
T1 sequence (P05231 30-212 limits assumed): as the sequence (chain, as listed by the source limits assumed, chain 1 of 2) above
Procedure: (§1) The KinExA 3000 instrument, manufactured by Sapidyne, was used to measure binding kinetics. Briefly, human IL-6 was covalently coupled to alzactone beads and the binding of free IgG to the beads was detected on the instrument. […] For example, the chimeric anti-IL-6 antibody was used at a constant concentration of 5 pM and individual tubes were incubated with 0-200 pM of IL-6. Incubations for the other IgGs were set in a similar manner. After the incubation, free IgG in each equilibrated sample was determined on the KinExA 3000 instrument according to the manufacturer's instructions. KD values were determined by the KinExA 3000 software using the KinExA 3000 instrument, as described in more detail below.

IL-6/sIL-6R complex = biological target: T2, IL-6/sIL-6R complex (human, UniProt P08887 20-358, limits assumed); assay: EIA: sIL-6R coated, 200 ng/ml human IL-6, antibody dilutions from 10 ug/ml, anti-human IgG-HRP
T2 construct: Formed on the plate: sIL-6R coated at 10 ug/ml, then human IL-6 added at 200 ng/ml; also called sIL-6/sIL-6R complex; IL-6/IL-6R complex
T2 sequence (chain, as listed by the source limits assumed, chain 1 of 2): as above
T2 sequence (P08887 20-358 limits assumed, chain 2 of 2): as the sequence (P08887 20-358 limits assumed, chain 2 of 2) above
Procedure: Costar EIA plates (Corning/Costar, Acton, Mass.) (Catalog # 9018) were coated with sIL-6R (10 μg/ml in PBS, 100 μl/well) overnight at 4° C. The plates were washed with 0.15M saline containing 0.02% (v/v) Tween 20 and wells were blocked with 1% (w/v) BSA in PBS, 200 μl/well for one hour at room temperature. The wells were washed again then in the sequential format incubated with 200 ng/ml human IL-6 (100 μl/well) in PBS for one hour at room temperature. Antibody was added to all wells in 10-fold serial dilutions from a starting concentration of 10 μg/ml in 100 μl/well for one hour at room temperature. After washing, the wells were incubated with goat anti-human IgG (H+L)-HRP-linked, (10 μg/ml in PBS) for 30 minutes at room temperature. The wells were washed and 100 μl/well of citrate-phosphate substrates solution (0.1M Citric Acid and 0.2M Sodium Phosphate, 0.01% H₂O₂ and 1 mg/ml OPD) was added for 15 minutes at room temperature. The reaction was stopped by addition of 25 μl/well of 4N sulfuric acid and the OD₄₉₀ was read via an automated ELISA plate reader (Molecular Devices Spectromax Plus, Sunnyvale, Calif.).
In addition, AME-A9, AME-A16, AME-18a, AME-20b, AME-22a, and AME-23a can detect IL-6 bound to sgp80 (sIL-6R) in a dose dependent manner using EIA. […] However, preincubation of IL-6 and any of these anti hIL-6 monoclonal antibodies precludes the ability of sIL-6R to bind IL-6.

recombinant human IL-6 [11] = biological target: T1, recombinant human IL-6; assay: KinExA 3000
Procedure: as §1
(§2) To measure kₒₙ, individual IgGs at 200 pM were mixed with 100-200 pM of human IL-6 and the unbound IgG was detected by binding to human IL-6 covalently coupled to alzactone beads on the KinExA 3000 instrument. A series of measurements were taken over time. The resulting data was used to calculate the kₒₙ with the KinExA 3000 software. koff was calculated by using the formula KD=koff/kₒₙ.

recombinant human IL-6 [12] = biological target: T1, recombinant human IL-6; assay: KinExA 3000, IgG at 200 pM mixed with 100-200 pM human IL-6, free IgG over time
Procedure: as §2

recombinant human IL-6 [13] = biological target: T1, recombinant human IL-6; assay: calculated, KinExA 3000
Procedure: as §1, §2

recombinant human IL-6 [14] = biological target: T1, recombinant human IL-6; assay: calculated from KD = koff/kon, KinExA 3000
Procedure: as §1, §2

recombinant human IL-6 [15] = biological target: T1, recombinant human IL-6; assay: ELISA: IgG dilutions captured on goat anti-human kappa, biotinylated IL-6 at 200 ng/ml, NeutrAvidin-alkaline phosphatase, O.D. 560 after 15 min
Procedure: The ELISA generally used Costar 3366 microtiter plates coated with a goat anti-human kappa antibody. Dilutions of Fab (or IgG) were incubated in the coated wells for 1 hr at 22° C. The wells were then washed with PBS, 0.1% Tween 20 and biotinylated IL-6 at 200 ng/ml was added for 1 hour. After washing, an alkaline phosphatase conjugate of NeutrAvidin was added and incubated for 1 hour at 22° C. A colorimetric substrate was added after extensive washing and the bound IL-6 was determined. A variation of this ELISA included an extended wash step in a beaker of PBS, 0.01% BSA at 37° C. after the biotinylated IL-6 incubation, e.g., an 18 hour extended wash step.

recombinant human IL-6 [16] = biological target: T1, recombinant human IL-6; assay: KinExA 3000, equilibrium in solution, IgG at 0.5 pM with serially diluted human IL-6, 20 C
Procedure: as §1

recombinant human IL-6 [17] = biological target: T1, recombinant human IL-6; assay: cell-based or functional assay
recombinant human IL-6 [18] = biological target: T1, recombinant human IL-6; assay: cell-based or functional assay; remark: listed apart in the source

Sequence of recombinant human IL-6 (human) (P05231 30-212 limits assumed): as the sequence (chain, as listed by the source limits assumed, chain 1 of 2) above

koff [1]: 1.3e-05 s⁻¹
Kd [4]: 3 pM
Improvement Ratio of KD (as compared to chimeric ab) [5]: 1 fold
Improvement Ratio of kon (against chimeric antibody) [5]: 1 fold
Improvement Ratio of koff (against chimeric antibody) [6]: 1 fold
EC50 (read off the curve) [7]: 0.1 µg/mL
kon [8]: 4.4e+06 M⁻¹ s⁻¹
EC50 (read off the curve) [9]: 0.01 µg/mL
B1: chimeric anti-IL-6 antibody CNTO 328 (antibody, INN chains, looked up, V domains shown)
VH: EVQLVESGGKLLKPGGSLKLSCAASGFTFSSFAMSWFRQSPEKRLEWVAEISSGGSYTYYPDTVTGRFTISRDNAKNTLYLEMSSLRSEDTAMYYCARGLWGYYALDYWGQGTSVTVSS
VL: QIVLIQSPAIMSASPGEKVTMTCSASSSVSYMYWYQQKPGSSPRLLIYDTSNLASGVPVRFSGSGSGTSYSLTISRMEAEDAATYYCQQWSGYPYTFGGGTKLEIK
modifications: biotinylated in competition ELISA
EC50, growth of IL-6 dependent 7TD1 cells with 500 pg/ml human IL-6 (ATPlite) [2]: 27 pM
EC50, growth of IL-6 dependent 7TD1 cells with 500 pg/ml human IL-6 (ATPlite) [3]: 0.00409 µg/mL

Kd (recombinant human IL-6 [10]): 0.78 pM
binding result (IL-6/sIL-6R complex): binds
Improvement Ratio of KD (as compared to chimeric ab) (recombinant human IL-6 [11]): 3.8 fold
Improvement Ratio of kon (against chimeric antibody) (recombinant human IL-6 [11]): 1 fold
kon (recombinant human IL-6 [12]): 4.7e+06 M⁻¹ s⁻¹
Improvement Ratio of koff (against chimeric antibody) (recombinant human IL-6 [13]): 3.5 fold
koff (recombinant human IL-6 [14]): 3.7e-06 s⁻¹
B2: AME-20b (antibody, V domains shown)
VH: EVQLVESGGGLVQPGGSLRLSCAASGFQFSSFAMSWVRQAPGKGLEWVAKISPGGSYTYYSDTVTGRFTISRDNAKNSLYLQMNSLRAEDTAVYYCARQLWGYYALDIWGQGTTVTVSS
VL: EIVLTQSPATLSLSPGERATLSCSASISVSYMYWYQQKPGQAPRLLIYDMSNLASGIPARFSGSGSGTDFTLTISSLEPEDFAVYYCMQWSGYPYTFGGGTKVEIK
notes: Tested as IgG; also called 140

binding result (IL-6/sIL-6R complex): binds
EC50 (read off the curve) (recombinant human IL-6 [15]): ~0.09 µg/mL
B3: AME-A9 (antibody, V domains shown)
VH: B2 VH with Q28T, P53S, S61P, I108Y
VL: B2 VL with I27S, M50T, M88S
notes: Human engineered monoclonal antibody, detected with anti-human IgG; also called 104

binding result (IL-6/sIL-6R complex): binds
Improvement Ratio of KD (as compared to chimeric ab) (recombinant human IL-6 [11]): 25 fold
Improvement Ratio of kon (against chimeric antibody) (recombinant human IL-6 [11]): 4.4 fold
Kd (recombinant human IL-6 [16]): 0.12 pM
kon (recombinant human IL-6 [12]): 2e+07 M⁻¹ s⁻¹
EC50 (read off the curve) (recombinant human IL-6 [15]): ~0.09 µg/mL
Improvement Ratio of koff (against chimeric antibody) (recombinant human IL-6 [13]): 5.4 fold
koff (recombinant human IL-6 [14]): 2.4e-06 s⁻¹
B4: AME-18a (antibody, V domains shown)
VH: B2 VH with S31P, Y57W
VL: B2 VL with I27S, M50F
notes: Tested as IgG; also called 130

Kd (recombinant human IL-6 [10]): 0.83 pM
binding result (IL-6/sIL-6R complex): binds
Improvement Ratio of KD (as compared to chimeric ab) (recombinant human IL-6 [11]): 3.6 fold
Improvement Ratio of kon (against chimeric antibody) (recombinant human IL-6 [11]): 0.22 fold
kon (recombinant human IL-6 [12]): 1e+06 M⁻¹ s⁻¹
EC50 (read off the curve) (recombinant human IL-6 [15]): ~0.07 µg/mL
Improvement Ratio of koff (against chimeric antibody) (recombinant human IL-6 [13]): 15.7 fold
koff (recombinant human IL-6 [14]): 8.3e-07 s⁻¹
B5: AME-16 (antibody, V domains shown)
VH: B2 VH with Q28T, S61P, I108Y
VL: B2 VL with I27S, M50T, M88S
notes: Tested as IgG; also called AME-A16; 106

Kd (recombinant human IL-6 [10]): 0.006 pM
binding result (IL-6/sIL-6R complex): binds
Improvement Ratio of KD (as compared to chimeric ab) (recombinant human IL-6 [11]): 500 fold
Improvement Ratio of kon (against chimeric antibody) (recombinant human IL-6 [11]): 1.6 fold
kon (recombinant human IL-6 [12]): 7.4e+06 M⁻¹ s⁻¹
Improvement Ratio of koff (against chimeric antibody) (recombinant human IL-6 [13]): 295 fold
koff (recombinant human IL-6 [14]): 4.4e-08 s⁻¹
B6: AME-23a (antibody, V domains shown)
VH: B2 VH with I108F
VL: B2 VL with I27Y
notes: Tested as IgG; also called 143

Improvement Ratio of KD (as compared to chimeric ab) (recombinant human IL-6 [11]): 81.1 fold
Improvement Ratio of kon (against chimeric antibody) (recombinant human IL-6 [11]): 1.2 fold
Kd (recombinant human IL-6 [16]): 0.037 pM
kon (recombinant human IL-6 [12]): 5.5e+06 M⁻¹ s⁻¹
Improvement Ratio of koff (against chimeric antibody) (recombinant human IL-6 [13]): 65 fold
koff (recombinant human IL-6 [14]): 2e-07 s⁻¹
B7: AME-19a (antibody, V domains shown)
VH: B2 VH with Q28T, S31P, Y57W
VL: B2 VL
notes: Tested as IgG; also called 136; human engineered anti-IL-6 (clone AME-19a) antibody
EC50, growth of IL-6 dependent 7TD1 cells with 500 pg/ml human IL-6 (ATPlite) (recombinant human IL-6 [17]): 2.7 pM
improvement of EC50 against CNTO328, 7TD1 cell assay (recombinant human IL-6 [17]): 10 fold
EC50, growth of IL-6 dependent 7TD1 cells with 500 pg/ml human IL-6 (ATPlite) (recombinant human IL-6 [18]): 0.00041 µg/mL

Kd (recombinant human IL-6 [10]): 0.18 pM
Improvement Ratio of KD (as compared to chimeric ab) (recombinant human IL-6 [11]): 16.7 fold
Improvement Ratio of kon (against chimeric antibody) (recombinant human IL-6 [11]): 1.3 fold
kon (recombinant human IL-6 [12]): 6e+06 M⁻¹ s⁻¹
Improvement Ratio of koff (against chimeric antibody) (recombinant human IL-6 [13]): 11.8 fold
koff (recombinant human IL-6 [14]): 1.1e-06 s⁻¹
B8: AME-22a (antibody, V domains shown)
VH: B2 VH with S31P, Y57W, S61P, V64D, I108F
VL: B2 VL with I27Y, M50F
notes: Tested as IgG; also called 150
